Columns and labels:
[1] = target: purified abnormally phosphorylated tau, mixed with affinity-purified normal tau (human) (UniProt P10636); experiment: competition ELISA on captured tau mixture; unlabeled AT8 at 3 µg/ml, competitor biotinylated BT2 (its signal is read)
[2] = target: purified abnormally phosphorylated tau, mixed with affinity-purified normal tau (human) (UniProt P10636); experiment: competition ELISA on captured tau mixture; signal of biotinylated AT8 with casein control, no competing antibody (row 111 ng/ml)
[3] = target: purified abnormally phosphorylated tau, mixed with affinity-purified normal tau (human) (UniProt P10636); experiment: competition ELISA on captured tau mixture; unlabeled AT8 at 9 µg/ml, competitor biotinylated AT8 (its signal is read)
[4] = target: purified abnormally phosphorylated tau, mixed with affinity-purified normal tau (human) (UniProt P10636); experiment: competition ELISA on captured tau mixture; unlabeled AT8 at 333 ng/ml, competitor biotinylated BT2 (its signal is read)
[5] = target: purified abnormally phosphorylated tau, mixed with affinity-purified normal tau (human) (UniProt P10636); experiment: competition ELISA on captured tau mixture; unlabeled AT8 at 3 µg/ml, competitor biotinylated AT8 (its signal is read)
[6] = target: affinity-purified normal human tau (human) (UniProt P10636); experiment: sandwich ELISA, normal tau at 1 µg/ml, fixed concentration of AT8
[7] = target: PHF-tau (abnormally phosphorylated human tau, 64 and 68 kDa forms, from Alzheimer brain) (human) (UniProt P10636); experiment: sandwich ELISA, PHF-tau diluted 1/20, fixed concentration of AT8
[8] = target: purified abnormally phosphorylated tau, mixed with affinity-purified normal tau (human) (UniProt P10636); experiment: competition ELISA on captured tau mixture; signal of biotinylated AT8 with casein control, no competing antibody (row 37 ng/ml)
[9] = target: purified abnormally phosphorylated tau, mixed with affinity-purified normal tau (human) (UniProt P10636); experiment: competition ELISA on captured tau mixture; unlabeled AT8 at 1 µg/ml, competitor biotinylated BT2 (its signal is read)
[10] = target: purified abnormally phosphorylated tau, mixed with affinity-purified normal tau (human) (UniProt P10636); experiment: competition ELISA on captured tau mixture; unlabeled AT8 at 37 ng/ml, competitor biotinylated AT8 (its signal is read)
[11] = target: affinity-purified normal human tau (human) (UniProt P10636); experiment: sandwich ELISA, normal tau at 10 ng/ml, fixed concentration of AT8
[12] = target: purified abnormally phosphorylated tau, mixed with affinity-purified normal tau (human) (UniProt P10636); experiment: competition ELISA on captured tau mixture; unlabeled AT8 at 9 µg/ml, competitor biotinylated BT2 (its signal is read)
[13] = target: purified abnormally phosphorylated tau, mixed with affinity-purified normal tau (human) (UniProt P10636); experiment: competition ELISA on captured tau mixture; signal of biotinylated AT8 with casein control, no competing antibody (row 9 µg/ml)
[14] = target: affinity-purified normal human tau (human) (UniProt P10636); experiment: sandwich ELISA, normal tau at 100 ng/ml, fixed concentration of AT8
[15] = target: purified abnormally phosphorylated tau, mixed with affinity-purified normal tau (human) (UniProt P10636); experiment: competition ELISA on captured tau mixture; signal of biotinylated AT8 with casein control, no competing antibody (row 1 µg/ml)
[16] = target: PHF-tau (abnormally phosphorylated human tau, 64 and 68 kDa forms, from Alzheimer brain) (human) (UniProt P10636); experiment: sandwich ELISA, PHF-tau diluted 1/2000, fixed concentration of AT8
[17] = target: PHF-tau (abnormally phosphorylated human tau, 64 and 68 kDa forms, from Alzheimer brain) (human) (UniProt P10636); experiment: sandwich ELISA, PHF-tau diluted 1/200, fixed concentration of AT8
[18] = target: purified abnormally phosphorylated tau, mixed with affinity-purified normal tau (human) (UniProt P10636); experiment: competition ELISA on captured tau mixture; unlabeled AT8 at 37 ng/ml, competitor biotinylated BT2 (its signal is read)
[19] = target: purified abnormally phosphorylated tau, mixed with affinity-purified normal tau (human) (UniProt P10636); experiment: competition ELISA on captured tau mixture; unlabeled AT8 at 1 µg/ml, competitor biotinylated AT8 (its signal is read)
[20] = target: purified abnormally phosphorylated tau, mixed with affinity-purified normal tau (human) (UniProt P10636); experiment: competition ELISA on captured tau mixture; unlabeled AT8 at 333 ng/ml, competitor biotinylated AT8 (its signal is read)
[21] = target: purified abnormally phosphorylated tau, mixed with affinity-purified normal tau (human) (UniProt P10636); experiment: competition ELISA on captured tau mixture; unlabeled AT8 at 111 ng/ml, competitor biotinylated AT8 (its signal is read)
[22] = target: purified abnormally phosphorylated tau, mixed with affinity-purified normal tau (human) (UniProt P10636); experiment: competition ELISA on captured tau mixture; unlabeled AT8 at 111 ng/ml, competitor biotinylated BT2 (its signal is read)
[23] = target: purified abnormally phosphorylated tau, mixed with affinity-purified normal tau (human) (UniProt P10636); experiment: competition ELISA on captured tau mixture; signal of biotinylated AT8 with casein control, no competing antibody (row 333 ng/ml)
[24] = target: purified abnormally phosphorylated tau, mixed with affinity-purified normal tau (human) (UniProt P10636); experiment: competition ELISA on captured tau mixture; signal of biotinylated AT8 with casein control, no competing antibody (row 3 µg/ml)
[25] = target: purified abnormally phosphorylated tau, mixed with affinity-purified normal tau (human) (UniProt P10636); experiment: competition ELISA on captured tau mixture; unlabeled BT2 at 1 µg/ml, competitor biotinylated BT2 (its signal is read)
[26] = target: purified abnormally phosphorylated tau, mixed with affinity-purified normal tau (human) (UniProt P10636); experiment: competition ELISA on captured tau mixture; unlabeled BT2 at 333 ng/ml, competitor biotinylated BT2 (its signal is read)
[27] = target: purified abnormally phosphorylated tau, mixed with affinity-purified normal tau (human) (UniProt P10636); experiment: competition ELISA on captured tau mixture; signal of biotinylated BT2 with casein control, no competing antibody (row 3 µg/ml)
[28] = target: purified abnormally phosphorylated tau, mixed with affinity-purified normal tau (human) (UniProt P10636); experiment: competition ELISA on captured tau mixture; unlabeled BT2 at 3 µg/ml, competitor biotinylated AT8 (its signal is read)
[29] = target: purified abnormally phosphorylated tau, mixed with affinity-purified normal tau (human) (UniProt P10636); experiment: competition ELISA on captured tau mixture; unlabeled BT2 at 111 ng/ml, competitor biotinylated AT8 (its signal is read)
[30] = target: purified abnormally phosphorylated tau, mixed with affinity-purified normal tau (human) (UniProt P10636); experiment: competition ELISA on captured tau mixture; unlabeled BT2 at 37 ng/ml, competitor biotinylated AT8 (its signal is read)
[31] = target: purified abnormally phosphorylated tau, mixed with affinity-purified normal tau (human) (UniProt P10636); experiment: competition ELISA on captured tau mixture; unlabeled BT2 at 3 µg/ml, competitor biotinylated BT2 (its signal is read)
[32] = target: purified abnormally phosphorylated tau, mixed with affinity-purified normal tau (human) (UniProt P10636); experiment: competition ELISA on captured tau mixture; signal of biotinylated BT2 with casein control, no competing antibody (row 9 µg/ml)
[33] = target: purified abnormally phosphorylated tau, mixed with affinity-purified normal tau (human) (UniProt P10636); experiment: competition ELISA on captured tau mixture; signal of biotinylated BT2 with casein control, no competing antibody (row 37 ng/ml)
[34] = target: purified abnormally phosphorylated tau, mixed with affinity-purified normal tau (human) (UniProt P10636); experiment: competition ELISA on captured tau mixture; signal of biotinylated BT2 with casein control, no competing antibody (row 111 ng/ml)
[35] = target: purified abnormally phosphorylated tau, mixed with affinity-purified normal tau (human) (UniProt P10636); experiment: competition ELISA on captured tau mixture; unlabeled BT2 at 9 µg/ml, competitor biotinylated AT8 (its signal is read)
[36] = target: purified abnormally phosphorylated tau, mixed with affinity-purified normal tau (human) (UniProt P10636); experiment: competition ELISA on captured tau mixture; unlabeled BT2 at 1 µg/ml, competitor biotinylated AT8 (its signal is read)
[37] = target: purified abnormally phosphorylated tau, mixed with affinity-purified normal tau (human) (UniProt P10636); experiment: competition ELISA on captured tau mixture; signal of biotinylated BT2 with casein control, no competing antibody (row 1 µg/ml)
[38] = target: purified abnormally phosphorylated tau, mixed with affinity-purified normal tau (human) (UniProt P10636); experiment: competition ELISA on captured tau mixture; signal of biotinylated BT2 with casein control, no competing antibody (row 333 ng/ml)
[39] = target: purified abnormally phosphorylated tau, mixed with affinity-purified normal tau (human) (UniProt P10636); experiment: competition ELISA on captured tau mixture; unlabeled BT2 at 333 ng/ml, competitor biotinylated AT8 (its signal is read)
[40] = target: purified abnormally phosphorylated tau, mixed with affinity-purified normal tau (human) (UniProt P10636); experiment: competition ELISA on captured tau mixture; unlabeled BT2 at 9 µg/ml, competitor biotinylated BT2 (its signal is read)
[41] = target: purified abnormally phosphorylated tau, mixed with affinity-purified normal tau (human) (UniProt P10636); experiment: competition ELISA on captured tau mixture; unlabeled BT2 at 111 ng/ml, competitor biotinylated BT2 (its signal is read)
[42] = target: purified abnormally phosphorylated tau, mixed with affinity-purified normal tau (human) (UniProt P10636); experiment: competition ELISA on captured tau mixture; unlabeled BT2 at 37 ng/ml, competitor biotinylated BT2 (its signal is read)

monoclonal antibody AT8
absorbance at 450 nm [1]: 0.375 A450 | absorbance at 450 nm [2]: 0.576 A450 | absorbance at 450 nm [3]: 0.056 A450 | absorbance at 450 nm [4]: 0.369 A450 | absorbance at 450 nm [5]: 0.054 A450 | A150 nm [6]: 0.021 A150 nm | A150 nm [7]: 1.46 A150 nm | absorbance at 450 nm [8]: 0.568 A450 | absorbance at 450 nm [9]: 0.368 A450 | absorbance at 450 nm [10]: 0.282 A450 | A150 nm [11]: 0.001 A150 nm | absorbance at 450 nm [12]: 0.369 A450 | absorbance at 450 nm [13]: 0.578 A450 | A150 nm [14]: 0.005 A150 nm | absorbance at 450 nm [15]: 0.548 A450 | A150 nm [16]: 0.565 A150 nm | A150 nm [17]: 1.18 A150 nm | absorbance at 450 nm [18]: 0.36 A450 | absorbance at 450 nm [19]: 0.059 A450 | absorbance at 450 nm [20]: 0.093 A450 | absorbance at 450 nm [21]: 0.155 A450 | absorbance at 450 nm [22]: 0.381 A450 | absorbance at 450 nm [23]: 0.564 A450 | absorbance at 450 nm [24]: 0.573 A450

monoclonal antibody BT2
absorbance at 450 nm [25]: 0.122 A450 | absorbance at 450 nm [26]: 0.179 A450 | absorbance at 450 nm [27]: 0.39 A450 | absorbance at 450 nm [28]: 0.557 A450 | absorbance at 450 nm [29]: 0.573 A450 | absorbance at 450 nm [30]: 0.549 A450 | absorbance at 450 nm [31]: 0.088 A450 | absorbance at 450 nm [32]: 0.369 A450 | absorbance at 450 nm [33]: 0.395 A450 | absorbance at 450 nm [34]: 0.385 A450 | absorbance at 450 nm [35]: 0.548 A450 | absorbance at 450 nm [36]: 0.55 A450 | absorbance at 450 nm [37]: 0.375 A450 | absorbance at 450 nm [38]: 0.381 A450 | absorbance at 450 nm [39]: 0.556 A450 | absorbance at 450 nm [40]: 0.071 A450 | absorbance at 450 nm [41]: 0.245 A450 | absorbance at 450 nm [42]: 0.318 A450

Reference: patent US8163873
